The target in this assay is HA70 of BoNT/A (full-length, residues M1–N626) (Clostridium botulinum strain 62A (BoNT/A1-producing)). Nature of the assay: ITC; […] ([…]) […] (400 µM) […]; 23°C; 50 mM Tris pH 7.6, 100 mM NaCl; […]. In general terms: Isothermal titration calorimetry measures the heat released or taken up as one component is titrated into another.

This passage reports Kd and stoichiometry N (nLoop per HA70 trimer) results from paper PMC3795040.

Broadly, the Kd is the concentration at which binding is half-saturated. A high value points to weaker binding.

Substance “synthetic nLoop peptide of NTNHA (from UniProt Q45914 116-148)” came in with a Kd of 340 nM and a stoichiometry N (nLoop per HA70 trimer) of 1.
